From publication PMC3572029

Molecular target: HSF1β-EGFP (heat shock factor 1, short β splicing isoform, fused to EGFP) (mouse)
Sequence (P38532 whole entry, the tested form may be a part, canonical isoform): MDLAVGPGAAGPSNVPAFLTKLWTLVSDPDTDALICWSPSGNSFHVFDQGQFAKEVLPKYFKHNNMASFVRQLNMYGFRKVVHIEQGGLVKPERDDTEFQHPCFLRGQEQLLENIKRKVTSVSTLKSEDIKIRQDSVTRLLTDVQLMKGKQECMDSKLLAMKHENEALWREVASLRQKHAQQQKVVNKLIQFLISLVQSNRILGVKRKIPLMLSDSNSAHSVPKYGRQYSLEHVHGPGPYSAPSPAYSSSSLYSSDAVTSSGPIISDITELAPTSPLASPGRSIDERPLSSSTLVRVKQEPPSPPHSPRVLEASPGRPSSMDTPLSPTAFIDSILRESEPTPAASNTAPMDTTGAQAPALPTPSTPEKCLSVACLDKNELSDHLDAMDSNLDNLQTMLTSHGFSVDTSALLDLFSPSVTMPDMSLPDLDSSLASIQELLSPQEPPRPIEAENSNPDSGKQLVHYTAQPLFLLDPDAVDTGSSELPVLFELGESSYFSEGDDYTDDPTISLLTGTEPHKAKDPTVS

In the case of “HSF2β (heat shock factor 2, short β splicing isoform) (natural protein)”, the HSE-driven firefly luciferase reporter activity of HSF1β in Hsf1.2−/− iMEFs co-transfected with HSF2β, MG132 at 2.5 µM is reported as 3 fold.
